# Experiment: soluble on expression in E. coli; label from the status in PepcDB or PDB records
row,Sequence,soluble on expression in E. coli
1,MAKKIEKNIITGLDIGTSKIIALIGEVTSDGTIEIIGIGRHPSRGLKRGVVVDIETTVNSIQRAVQEAELMAGCEVRTVYAGIAGSHIRSLNSHGIVAIRDQEVSQADVERVIDAAKAVAIPADQ,not soluble
2,MAKKTSSKGKLPPGPTPLPFIGNYLQLNTEQMYNSLMKISERYGPVFTIHLGPRRVVVLCGHDAVKEALVDQAEEFSGRGEQATFDWLFKGYGVAFSNGERAKQLRRFSIATLRGFGVGKRGIEERIQEEAGFLIDALRGTHGANIDPTFFLSRTVSNVISSIVFGDRFDYEDKEFLSLLRMMLGSFQFTATSTGQLYEMFSSVMKHLPGPQQQAFKELQGLEDFIAKKVEHNQRTLDPNSPRDFIDSFLIRMQEEEKNPNTEFYLKNLVMTTLNLFFAGTETVSTTLRYGFLLLMKHPEVEAKVHEEIDRVIGKNRQPKFEDRAKMPYTEAVIHEIQRFGDMLPMGLAHRVNKDTKFRDFFLPKGTEVFPMLGSVLRDPRFFSNPRDFNPQHFLDKKGQFKKSDAFVPFSIGKRYCFGEGLARMELFLFFTTIMQNFRFKSPQSPKDIDVSPKHVGFATIPRNYTMSFLPRHHHH,soluble
3,MAKKVFIGATGQNCGKTTMSVSLMHLARQKYQRVGFIKPIGPKIEMYNGLTVDMDAILMARTFGLEEDLALMNPVPLPKNFTRDYLSGKFDCHTLKKKIVEAFEILDQSYDFLIIEGAGHCGVGSVIGLSNACVAHMLGAPVIVVTDSGIGSAIDAVHLNLALYEKEEADVRMVIVNKLRSDKRDSILGFLRRGFPGRSLQVTGGFNYSPVLANPTLSHIGKLLNLPVHGDADGHSRIIHHIHLGAASSQRVVDALEDATLLVLTSSRDELIVTLSSLYHIPSYRDKIAGLVIAGHMPVSEITQQILDDSMIPYIRVHDSTARVFTTLMEDVSKITAEDQEKLNWIRANAENEIDFEAIDALLLEHHHHHH,not soluble
4,MAKKVKVITDPEVIKVMLEDTRRKILKLLRNKEMTISQLSEILGKTPQTIYHHIEKLKEAGLVEVKRTEMKGNLVEKYYGRTADVFYINLYLGDEELRYIARSRLKTKIDIFKRLGYQFEENELLNIMDRMSQKEFDATVRISKYIEEKEDALKDFSNEDIIHAIEWLSTAELARDEEYLELLKRLGSILKR,soluble
5,MAKRVADAQIQRETYDSNESDDDVTPSTKVASSAVMNRRKIAMPKRRMAFK,soluble
6,MAKSLLRSGNLDDYQAVGGGGQAVFESALQIRETLRLRKQQAMVDCLAIPQLNDNGDRVDWYSPIEGQAIAWKAADEETRSRALRYLASTFESAAALSRKSLQSGKTALQLFGSLLEKATQFPGENHVFLVNGKPVITFWGFVNLNENTRDDVLDCLRVTEAIPDIPLVEPEPEEKPLVEAAFSQADEPLLTSVIEPPKMPEEPAAPPVIVSEPKPAAPIPVAEAKRARRLPLWSLPVAAVVIAAVATPFFWPSSSVDGASPVRAAPVATAKTDVTPLPELTAHLPLHRAEVTPAPKAAPLPEAPVIIAAIPKDALVMDNTQMKLGTTRFLNGSWRISVDVKDPITGKPPSLRYQIQNNKGIARVVHGDNVVCRAEIFSGLHQTGELMIKSRGNARCTDGSRYPMPEITCKAGVNDVATCTARYGDHAAIPLTFKKIGA,not soluble
7,MAKTKDKSIFVSSVDSDSDIEEIIMPPKPPVEVIQLDDSDDECQDICKPIYNKKVHKDPIVRVSYRQRIPESYFPGISTSLINVQREHNNRSKYDTWGSNSCSEPRISISNIERLEKPSYHEARRVPVFERLERSREISNGRNNQNPIRFNHKFVPPINRQTPLFNNQQLLVNVPFNEHHPTFLEPRPFYRSNVNEYNAGGLNRGSFRKMGRLNMEIVRDNDDFEEHFLAPNFPAKSASIDRRVDDSLSSNSYLRSGMIMASSERLEDPRFSGRLPVFARQINNQEINNDNFYQNSICYNHNNYPSNLESRVSFPFEARHHDADGLNRGRYQVMEHVNMGIMRNSEDFEDYDITQTDQDNHFYNDKDSGKHHRHRHRSKNNKKHKKHYDRNESGNSSECREEDDYEISNPSEKRHERKKRQRSSHRKESACVDEDNYILDEDRFYQQESDEYHNSLEMEREYEHGMDVGVKKEHSYKCDDIARNARKRARLTDDDMARREELFKEWSYSKEIVDGVTQLFGGPPRESERHQKKQKELVFEADRTAMHALSIRSGALVKARLLEIHYATGCHLIFLEEVKRGGYTYVELKGDPEHIKNAQKMIDDMVIDEHYIHDGRESIVYFYNAPHELRNTRGFDLNCRSIEKYCGIIIEKMREVFGIGGYVSTAPLKLTGSVNSIHMARETMQSKTKRFLDEEKFKETVEHCTPISFYRKIIGRCGENLKTIEKVTRTAIVFKRSFDNNEACFSIRGRTDNIKQAIEKIEEITHENQPADDDPGIFQVRVPENMVARLIGRHGVEINRIRSESKAKCYLNAIRGNLDDKFMVCSGGVEEAAYAAYLTKVKIGIIDPKVIQFNSDDFNNLSKVKPMEDPRLVMLKKRYAERKECK,soluble
8,MAKTLAQGRKPGSGRKPGKGKTLREGRKPGSGRRRRQDTGGKETDGSQQDQESRLISSRDMEAVDALRELTHSPSSHSAHNSSAAPPPHAAAASTSLPPSLDYTHQSF,soluble
9,MALAPAAGCLFDDDNSFTYDVTWYCGMDECTRTEEVQRYDRARQDYSTLTITSSVDDTLFTDGIIAVSNEVPREDCRLVHGLNFLGQDIEPARFCYTPDGFELRVTIPGDGDENSTTWLLRTN,not soluble
10,MALEESLIDLERFCAKAWRVYAKEDPLSHLSFNEFDYLRVIQVFPEGVRITDLADELQVTKPSASNMVVRLEKKGLVKRIACNEDARAKRVLLTEDVAEKMSLEQIVYKDISDQMMLKLNEQEAKQLQSLLNKALGN,not soluble
11,MALELSRLPELLSRIDGYKGQPVTRLAVMLNLLVFIRSSELRYARWSEIDIDNSMWTIPAEREPLPGVKFSHRGSKMRTPHLVPLSKQVVAILAELQTWAGENGLIFTGAHDPRKPISENTVNKALRVMGYDTTQEVCGHGFRAMACSALIESGLWSRDAVERQMSHQERNGVRAAYIHKAEHLEERRLMLQWWADFLDANREKGISPFEYAKINNPLKLEHHHHHH,soluble
12,MALFRGMWSVLKALGRTGVEMCAGCGGRIPSSISLVCIPKCFSSMGSYPKKPMSSYLRFSTEQLPKFKAKHPDAKLSELVRKIAALWRELPEAEKKVYEADFKAEWKAYKEAVSKYKEQLTPSQLMGMEKEARQRRLKEKALVKRRELILLGKPKRPRSAYNIYVSESFQEAKDDSAQGKLKLVNEAWKNLSPEEKQAYIQLAKDDRIRTTYEMKSWEEQMAEVGRSDLIRRSVKRSGDISEH,soluble
13,MALGETKGIILFTKDFKEKDKLVKIFTESYGKLMFFVKGAHRKNNPLLPAILPFTEAVYIGNFREEGLSFLNSSKEVQPFRNIQQDIFINAYGTYILNLVDAAIEDQHYDPNLFQFTHMALSALNEQKDPEIITNIFEIQLLERFGVRPEWHHCVACGETQGKFDYSSKYSGVLCEKHWHLDEQRYHADPRAIHFIRLFSQVSYEKVQNIQVKEETKKSIRETIDMLYDEYVGLHLKSKKFIDQMKTWENTLKIPPRKKEEK,not soluble
14,MALLREYKEIAYQWGIWKTEESPEELLALLPDPERYEQQLTLFSSPHRKLEWLSVRVLLYQLLGEEKTIEYAPSGKPHLADSSYFISISHTRGYVAVILSPVSEVGIDIEQYGQRVHKVAHKYMRPDELISEYQGEDTWSLLLHWSAKEVMFKCMDTSEVDFREHLRIMPFQVCEHGEFPAEEYRTEHKKKFMIRYLLHPDFVMTWQVTSAYSVNECDIMKKMQ,not soluble
15,MALSDRLELVSASEIRKLFDIAAGMKDVISLGIGEPDFDTPQHIKEYAKEALDKGLTHYGPNIGLLELREAIAEKLKKQNGIEADPKTEIMVLLGANQAFLMGLSAFLKDGEEVLIPTPAFVSYAPAVILAGGKPVEVPTYEEDEFRLNVDELKKYVTDKTRALIINSPCNPTGAVLTKKDLEEIADFVVEHDLIVISDEVYEHFIYDDARHYSIASLDGMFERTITVNGFSKTFAMTGWRLGFVAAPSWIIERMVKFQMYNATCPVTFIQYAAAKALKDERSWKAVEEMRKEYDRRRKLVWKRLNEMGLPTVKPKGAFYIFPRIRDTGLTSKKFSELMLKEARVAVVPGSAFGKAGEGYVRISYATAYEKLEEAMDRMERVLKERKLV,soluble

# From the DeepSol protein solubility set
